The record followed here is PMC5378476, “Mechanism of ribosome rescue by ArfA and RF2” (eLife, 2017).

The assay concerns the target T1, release factor RF2 (E. coli K12, UniProt P07012 1-365).
T1 construct: Peptide chain release factor RF2, E. coli K12 strain; SPF motif at 205-207, GGQ motif at 250-252, switch loop aa 315-323; source: purified as described (Korostelev et al., 2008; Laurberg et al., 2008)
T1 sequence: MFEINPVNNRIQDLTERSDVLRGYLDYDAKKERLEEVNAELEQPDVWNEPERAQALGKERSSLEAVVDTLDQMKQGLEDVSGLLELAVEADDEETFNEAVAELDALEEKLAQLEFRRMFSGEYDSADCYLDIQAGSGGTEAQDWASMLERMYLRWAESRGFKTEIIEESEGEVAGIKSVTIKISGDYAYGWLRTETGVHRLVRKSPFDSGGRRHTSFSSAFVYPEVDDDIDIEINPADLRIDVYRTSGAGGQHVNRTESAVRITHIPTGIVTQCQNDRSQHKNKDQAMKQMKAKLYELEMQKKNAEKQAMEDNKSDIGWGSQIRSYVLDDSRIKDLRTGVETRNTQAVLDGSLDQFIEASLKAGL
As to the kind of experiment: cryo-EM structure; 70S•mRNA•tRNAfMet•ArfA•RF2 complex reconstituted in vitro from 30S and 50S subunits, mRNA truncated after the P-site AUG; 20 mM Tris-HCl pH 7.0, 100 mM NH4Cl, 20 mM MgCl2, 0.5 mM EDTA, 6 mM βME; on grids ~0.45 µM 70S, 10 µM ArfA, 10 µM RF2; two classes (Structure I, compact RF2; Structure II, extended RF2) from one dataset. Conditions: both partners purified.

B1: ArfA (alternative rescue factor A) (natural protein, E. coli, UniProt P36675 1-60, looked up)
chain: MSRYQHTKGQIKDNAIEALLHDPLFRQRVEKNKKGKGSYMRKGKHGNRGNWEASGKKVNH
notes: ArfA, E. coli, gene from the ASKA Clone(-) library; the forward primer starts at the first ATG of the gene after the His6 codons, the reverse primer ends at the codon of residue 60; The natural protein is longer than 60 residues; the construct is cut short at the C-terminus; No density for the His6 tag in the maps; source: E. coli BLR/DE3, pET24b+, purified (Ni-NTA, ion exchange, size exclusion); …
As for B1, the binding result was “binds”.
